Test results: paper PMC11099193, “Extracellular modulation of TREK-2 activity with nanobodies provides insight into the mechanisms of K2P channel regulation” (Nature Communications, 2024)

B1: Nb-Binder-58 (VHH)
VHH: QVQLVESGGGLVQAGGSLRLSCAASGRAGSGYAMGWFRQAPGKEREIVGAISWSGDNTYYADSVRGRVTISRDYAQNTVYLQMNSLKPEDTAVYYCAADGRGNLRRGTAGRYVEYWGQGTQVTVSS
notes: also called CA10758; Nb58; source: E. coli WK6, periplasm, purified (Ni-NTA)
B2: Nb-Inhibitor-61 (VHH)
VHH: QVQLVESGGGLVQAGDSLRVSCAGSGFTFTSYGMGWFRQAPGKEREFVASINWNSNTAYADSVRGRFTISRDNAESMMYLQMNSLKPEDTAVYYCAATRAYSKPRVDSRHYDYWGQGTQVTVSS
notes: also called CA10761; Nb61; source: E. coli WK6, periplasm, purified (Ni-NTA)
B3: CA10752 (VHH)
VHH: QVQLVESGGGLVQAGGSLRLSCAASGRTSSTYAMSWFRQPPGKEREFVARIRWSGSNTYYADSVKGRFTISGDNAKNTVYLQMNSLKAEDTAVYYCAAVIDPYSSAYEYWGQGTQVTVSS
B4: CA10753 (VHH)
VHH: QVQLVESGGGLVQAGGSLRLSCAASGRTFSTYAMSWFRQAPGKEREFVARIRWSGTSTAYADSVKGRFFISGDNAKNTVYLQMNSLKPEDTAVYYCAAVINPYSSAYEYWGQGTQVTVSS
B5: CA10754 (VHH)
VHH: QVQLVESGGGLVQAGGSLRLSCAASGRTFSTYAMSWFRQAPGKEREFVARIRWSTTRTSSTYYADSVKGRFTISGDNAKNTVYLQMDSLKPEDTAVYYCAAVINPYSSAYEYWGQGTQVTVSS
B6: CA10755 (VHH)
VHH: QVQLVESGGGLVQAGGSLRLSCAASRSIVTINAMSWHRQAPGKQRELVASITKRGRTNIADSVKGRFAISWDRNTVYLQMNSLKPEDTAVYYCAALTDIPMNTYWGQGTQVTVSS
B7: CA10756 (VHH)
VHH: QVQLVESGGGLVQAGGSLRLSCAASRSFVTINAISWHRQAPGKQRELVASITKRGRTNIADSVKGRFAISWDKNTVYLQMNSLKPEDTANYYCAALTDIPVNTYWGQGTQVTVSS
B8: CA10759 (VHH)
VHH: QVQLVESGGGLVQAGGSLRLSCAASGLTFSRYNMGWFRQAPGKEREFVAAINRYGGTMYATDSVKGRFTISRDNVKSTVDLQMNRLKPEDTAVYYCAADQQYMSRLEADFGSWGQGTQVTVSS
B9: CA10760 (VHH)
VHH: QVQLVESGGGLVQAGGSLRLSCAASGLTFSAYNMGWFRQAPGKEREFVAAINRYGGTLYTTDSVKGRFTISRDNVKSTVDLQMNRLEPEDTAVYYCAADQQYMSRLEADFGSWGQGTQVTVSS
B10: CA10763 (VHH)
VHH: QVQLVESGGGLVQAGGSLRLSCAASGLTFSGYPMGWFRQAPGKEREFVATISRSGNNMHYADSVKGRFTISRDNAKNTVSLQMNSLKPEDTAVYYCAADSTTLRRGVASVEYWGQGTQVTVSS
B11: CA10764 (VHH)
VHH: QVQLVESGGGLAQAGGSLRLSCAASGRTFSNYAMGWFRQAPGKEREFVATISSSGGTIRYADSVKGRFTISRDNAKNTVALQMNVLKPEDTAVYYCAQSKYGRAWSDRYEYDRWGQGTQVTVSS
B12: CA10765 (VHH)
VHH: QVQLVESGGGLVQAGGSLRLSCAASGFTFDDYAIGWFRQAPGKEREGVSCISSSDGSTYYADSVKGRFTISSDNAKNTVYLQMNSLKPEDTAVYYCAADPYLYCSDYGDSGTLSYYGVDYWGKGTQVTVSS
B13: CA10766 (VHH)
VHH: QVQLVESGGGLVQAGGSLRLSCAASGRSFSTYGIGWFRQAPGRERDLVASISWSGGGTYYADSVKGRSTISRDNAKNMVDLQMNSLKPEDTAVYYCAARRLGGVGRIVQYDYWGQGTQVTVSS
B14: CA10769 (VHH)
VHH: QVQLVESGGGLVQAGDSLRLSCAASGRTSSSDVMGWFRQAPGKGREFVAETSWRGGKTAYADSVKGRFAISRDNAKNTVYLQMNNLKPEDTAVYYCAVLHADSSTYAYWGQGTRVTVSS
B15: CA10770 (VHH)
VHH: QVQLVESGGGLVQAGGSLRLSCAASGRSFSSYRMAWFRQAPGLEREFVAAISRSGSNTDYADSVKGRFTISRDNAKNTVYLQMNSLKPDDTAVYFCAANTSPLLGSVATGQEYYIYWAQGTQVTVSS
B16: CA10771 (VHH)
VHH: QVQLVESGGGLVQAGGSLRLSCAASGRTASLYAMDWFRQAPGKEREFVARLILSTFGTNYADSVKGRFTFSRDNAKNTVYLQMNNLKPEDTGVYFCAAHSLTSTNWDQGTQVTVSS
B17: CA10772 (VHH)
VHH: QVQLVESGGGLVQPGGSLRLSCAASGFTFSAYAMRWHRQAPGKGLEWVSSIDHSGAWPNYADSVKGRFTISRDNAKNTLYLQMDSLKPEDTAVYYCSKAGFRGQGTQVTVSS
B18: CA10773 (VHH)
VHH: QVQLVESGGGLVQPGGSLRLSCAASGFTFSSYPMSWARQAPGKGLEWVSAINRGGSSTNYADSVKGRFTISRDNAKNTLYLQMDSLKPEDTAVYYCFKGGTRGQGTQVTVSS
B19: CA10774 (VHH)
VHH: QVQLVESGGGLVQPGGTLRLSCAASGFTFSSKPMSWARQAPGKGLEWVSAISRDGSSTNYADSVKGRFTISRNNAWNTLYLQMDNLKPEDTAVYYCFMGGTRGQGTQVTVSS
B20: CA10777 (VHH)
VHH: QVQLVESGGGLVQPGGSLRLSCAASGLIARLIDWGWYRQAPGKQRELVAAITAGGRTNYTDSVKGRFTISRDDPKNTVYLQMSALKPEDTAVYYCCVDFRSYAGKQYHYCGQGTQVTVSS
B21: CA10778 (VHH)
VHH: QVQLVESGGGLVQAGGSLRLSCAASRGIFTITAMSWHRQAPGKQRELVASITRRGRTNIADSVKDRFAISWDKNTVYLQMNSLKPEETAVYYCAALTDAPMNTYWGQGTQVTVSS
B22: CA10779 (VHH)
VHH: QVQLVESGGGAVQAGGSLRLSCASSDHSFTRYTIAWFRQAPGKEREFVAALTWNGGITNYADSVKGRFTISRENGKNTAYLQMDALESEDTAVYYCAAVFGPASLTREDMYEYWGQGTQVTVSS
B23: CA10780 (VHH)
VHH: QVQLVESGGGLVQAGGSLRLSCAASGRTFSSYAMGWFRQAPGKEREFVAAISWSGGSTYYADSVKGRFTVSRDNAKNTVYLQMNSLKPEDTAVYYCAADSISTAQAMRVNERDYGMDYWGKGTQVTVSS
B24: Nb-Binder-58 fused to the mVenus fluorescent protein (VHH)
VHH: QVQLVESGGGLVQAGGSLRLSCAASGRAGSGYAMGWFRQAPGKEREIVGAISWSGDNTYYADSVRGRVTISRDYAQNTVYLQMNSLKPEDTAVYYCAADGRGNLRRGTAGRYVEYWGQGTQVTVSS
notes: as the VHH of m9 (Nb58); mVenus joined by a (GS)2 linker; also called Nb58 fused to mVenus; source: cloned into the pFAW vector; not shown: mVenus, C-terminal, kept
B25: Nb-Binder-57 fused to mVenus (VHH)
VHH: QVQLVESGGGLVQAGDSLRLSCASSGRALSNVAMGWFRQAPGKEREIVAAISWSGDNTYYADSGRGRFTISRDNAKNTVYLQMNNLRPEDTAVYYCAADGRGNLRRGTAGRYVDYWGQGTQVTVSS
notes: mVenus joined by a (GS)2 linker; also called CA10757; Nb57; source: cloned into the pFAW vector; not shown: mVenus, C-terminal, kept

Biological target: T1, human TREK-2 protein (residues Gly67 to Glu340) (human)
T1 construct: Homodimer with a C123 disulphide between the chains; also called KCNK10; purified TREK-2; source: detergent-solubilised, purified
T1 chain: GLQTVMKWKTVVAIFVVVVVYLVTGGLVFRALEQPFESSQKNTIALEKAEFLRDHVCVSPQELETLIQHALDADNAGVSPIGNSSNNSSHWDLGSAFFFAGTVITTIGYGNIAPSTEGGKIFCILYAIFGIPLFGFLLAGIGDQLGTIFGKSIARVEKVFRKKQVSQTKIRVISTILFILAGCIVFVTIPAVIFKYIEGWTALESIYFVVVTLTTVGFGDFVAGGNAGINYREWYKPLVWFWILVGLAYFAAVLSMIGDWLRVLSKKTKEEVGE
Assay: SEC; each nanobody mixed with purified TREK-2 in a 2:1 molar ratio, Sepax SRT SEC-300 column in 200 mM KCl, 20 mM HEPES pH 7.5; shift of the 280 nm TREK-2 peak against TREK-2 alone
Settings: both partners purified
B1: binds.

Biological target: T2, biotinylated TREK-2 (Homo sapiens, biotin (site not stated))
T2 construct: the buffer (OGNG/CHS) is that of the cryo-EM sample
T2 chain: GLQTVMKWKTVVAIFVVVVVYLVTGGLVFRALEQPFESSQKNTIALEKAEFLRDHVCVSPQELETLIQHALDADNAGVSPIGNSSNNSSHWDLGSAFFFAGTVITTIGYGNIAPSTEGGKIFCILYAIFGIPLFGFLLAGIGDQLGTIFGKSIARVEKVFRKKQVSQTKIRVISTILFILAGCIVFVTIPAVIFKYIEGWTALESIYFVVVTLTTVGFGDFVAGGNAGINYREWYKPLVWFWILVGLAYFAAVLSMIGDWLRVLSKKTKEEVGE
Assay: BLI; Octet Red; biotinylated TREK-2 (50 nM) loaded on streptavidin biosensors in 200 mM KCl, 20 mM HEPES pH 7.5, 0.12% OGNG, 0.012% CHS; nanobody dilutions 2 µM-7.8 nM (Nb61) and 1000 nM-3.9 nM (Nb6158); 600 s association, 600 s dissociation
Settings: both partners purified
In the case of B2, the Kd is reported as 1100 nM.

Biological target: T1, human TREK-2 protein (residues Gly67 to …)
Assay: not given
Settings: not given
B3: binds.
B4: binds.
B5: binds.
B6: binds.
B7: binds.
B8: binds.
B9: binds.
B10: binds.
B11: binds.
B12: binds.
B13: binds.
B14: binds.
B15: binds.
B16: binds.
B17: binds.
B18: binds.
B19: binds.
B20: binds.
B21: binds.
B22: binds.
B23: binds.

These binders were tested against T3, TREK-2-mCherry fusion (Homo sapiens, UniProt P57789-4, strain) (assay: immunostaining of cells or tissue; HEK293T cells transfected with K2P-mCherry, fixed with 4% formaldehyde, incubated with nanobody-mVenus for 2 h at 37 °C, washed, imaged for overlap of the two fluorescent signals). Settings: not given.
T3 construct: The legend says HEK-293, the methods HEK293T; also called TREK-2 tagged with the mCherry fluorescent protein; K2P-mCherry-pFAW; source: HEK293T, transfected (pFAW vector), fixed cells; not shown: mCherry, C-terminal, kept
T3 sequence (P57789 whole entry, looked up, stated change not applied, the tested form may be a part): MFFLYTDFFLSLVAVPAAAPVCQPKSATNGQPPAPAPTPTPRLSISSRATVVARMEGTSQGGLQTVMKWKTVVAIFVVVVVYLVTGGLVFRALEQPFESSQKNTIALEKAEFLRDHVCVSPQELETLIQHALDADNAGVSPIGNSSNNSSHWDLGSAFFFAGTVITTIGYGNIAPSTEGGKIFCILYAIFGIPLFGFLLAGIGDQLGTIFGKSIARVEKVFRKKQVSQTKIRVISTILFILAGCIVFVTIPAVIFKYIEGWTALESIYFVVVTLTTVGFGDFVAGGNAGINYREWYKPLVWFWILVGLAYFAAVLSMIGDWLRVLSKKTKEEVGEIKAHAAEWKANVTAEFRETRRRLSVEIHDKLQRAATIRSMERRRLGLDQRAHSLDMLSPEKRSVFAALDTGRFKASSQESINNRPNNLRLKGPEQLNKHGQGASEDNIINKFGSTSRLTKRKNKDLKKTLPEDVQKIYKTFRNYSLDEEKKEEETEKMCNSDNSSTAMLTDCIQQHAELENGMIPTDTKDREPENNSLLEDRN
B24: binds.
B25: binds.

These binders were tested against T4, TREK-1 tagged with mCherry (Homo sapiens, UniProt O95069) in the same assay as above. Settings: not given.
T4 construct: human TREK-1 K2P channel, stop codon removed and mCherry fused in frame to the C-terminus by a (GS)2 linker; source: HEK293T, transfected (pFAW vector), fixed cells; not shown: mCherry, C-terminal, kept
T4 sequence (O95069 whole entry, the tested form may be a part): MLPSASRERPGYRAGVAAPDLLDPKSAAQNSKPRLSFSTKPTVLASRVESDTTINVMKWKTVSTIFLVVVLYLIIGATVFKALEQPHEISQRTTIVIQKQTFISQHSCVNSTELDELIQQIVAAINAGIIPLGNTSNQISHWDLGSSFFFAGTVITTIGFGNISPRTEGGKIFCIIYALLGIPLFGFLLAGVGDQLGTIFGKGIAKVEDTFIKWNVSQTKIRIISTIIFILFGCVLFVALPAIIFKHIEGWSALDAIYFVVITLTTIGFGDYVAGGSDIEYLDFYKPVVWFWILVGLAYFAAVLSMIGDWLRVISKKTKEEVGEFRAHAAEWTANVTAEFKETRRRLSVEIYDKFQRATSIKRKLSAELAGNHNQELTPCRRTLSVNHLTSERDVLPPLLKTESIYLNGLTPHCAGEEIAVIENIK
B24: no binding.
B25: no binding.
